The values that follow come from PMC8617483, “Structure of the ATP synthase from Mycobacterium smegmatis provides targets for treating tuberculosis” (Proceedings of the National Academy of Sciences of the …, 2021).

Broadly, the stoichiometry N is the number of molecules, sites or subunits per partner or assembly.

The labels stand for the following.
B1: ATP synthase a-subunit from Mycobacterium smegmatis (natural protein, UniProt A0R206 1-252, looked up)
chain: MLAAEEGGAAIHVGHHTLVFELFGMTFNGDTILATAVTAVIVIALAFYLRAKVTSTGVPSGVQLFWEALTIQMRQQIEGSIGMKIAPFVLPLSVTIFVFILISNWLAVLPLQYGGADGAAAELYKAPASDINFVLALALFVFVCYHAAGIWRRGIVGHPIKVVKGHVAFLAPINIVEELAKPISLALRLFGNIFAGGILVALIAMFPWYIQWFPNAVWKTFDLFVGLIQAFIFSLLTILYFSQSMELDHEDH
notes: ATP synthase subunit a, M. smegmatis mc2 155, encoded in the entire atp operon; modelled in substate S1a (PDB 7NJK): 10-247; One copy in the enzyme
B2: ATP synthase ε-subunit from Mycobacterium smegmatis (natural protein, UniProt A0R1Z9 1-121, looked up)
chain: MADLNVEIVAVERELWSGPATFVFTRTTAGEIGILPRHIPLVAQLVDDAMVRVEREGEDDLRIAVDGGFLSVTEETVRILVENAQFESEIDADAAKEDAASDDERTAAWGRARLRALGQID
notes: ATP synthase subunit ε, M. smegmatis mc2 155, encoded in the entire atp operon; modelled in substate S1a (PDB 7NJK): 3-120; One copy in the enzyme
B4: ATP synthase bδ-subunit from Mycobacterium smegmatis (natural protein, UniProt A0R203 1-445, looked up)
chain: MSIFIGQLIGFAVIAFIIVKWVVPPVRTLMRNQQEAVRAALAESAEAAKKLADADAMHAKALADAKAESEKVTEEAKQDSERIAAQLSEQAGSEAERIKAQGAQQIQLMRQQLIRQLRTGLGAEAVNKAAEIVRAHVADPQAQSATVDRFLSELEQMAPSSVVIDTAATSRLRAASRQSLAALVEKFDSVAGGLDADGLTNLADELASVAKLLLSETALNKHLAEPTDDSAPKVRLLERLLSDKVSATTLDLLRTAVSNRWSTESNLIDAVEHTARLALLKRAEIAGEVDEVEEQLFRFGRVLDAEPRLSALLSDYTTPAEGRVALLDKALTGRPGVNQTAAALLSQTVGLLRGERADEAVIDLAELAVSRRGEVVAHVSAAAELSDAQRTRLTEVLSRIYGRPVSVQLHVDPELLGGLSITVGDEVIDGSIASRLAAAQTGLPD
notes: ATP synthase subunit bδ (natural fusion of a b-domain, a linking domain and a δ-domain), M. smegmatis mc2 155, encoded in the entire atp operon; modelled in substate S1a (PDB 7NJK): 1-162, 169-444; One copy in the enzyme; part of the peripheral stalk; also called fused bδ-subunit
B5: ATP synthase γ-subunit from Mycobacterium smegmatis (natural protein, UniProt A0R201 1-307, looked up)
chain: MAATLRELRGRIRSAGSIKKITKAQELIATSRIAKAQARVEAARPYAAEITNMLTELAGASALDHPLLVERKQPKRAGVLVVSSDRGLCGAYNANVLRRAEELFSLLRDEGKDPVLYVVGRKALGYFSFRQRTVVESWTGFSERPTYENAREIADTLVNAFMAGADDEGDDAGADGILGVDELHIVFTEFRSMLSQTAVARRAAPMEVEYVGEVETGPRTLYSFEPDPETLFDALLPRYIATRVYAALLEAAASESASRRRAMKSATDNADDLIKALTLAANRERQAQITQEISEIVGGANALAGSK
notes: ATP synthase subunit γ, M. smegmatis mc2 155, encoded in the entire atp operon; modelled in substate S1a (PDB 7NJK): 3-213, 220-304; One copy in the enzyme

Holding throughout (assay): cryo-EM structure; single particles of the ATP synthase purified in detergent and inhibited with bedaquiline (25 μM); 63 maps and 27 models, resolutions 2.11 to 4.15 Å; states S1 to S3 and substates
Data set [1] has as its target B4. As to conditions: both partners purified.
The target of data set [2] is B5. As to conditions: both partners purified.
Data set [3] concerns the molecule itself.
Data set [4] concerns the target B2. Conditions: both partners purified.
Data set [5] has as its target B1. Conditions: both partners purified.
For data set [6], the target named is T1, ATP synthase α-subunit from Mycobacterium smegmatis (Mycobacterium smegmatis, UniProt A0R202 1-548).
T1 construct: ATP synthase subunit α, M. smegmatis mc2 155, encoded in the entire atp operon; modelled in substate S1a (PDB 7NJK): αE 5-21, 29-406, 411-521; αTP 5-21, 29-406, 411-521; αDP 6-406, 413-521, 527-545; Three copies in the enzyme (α3β3); also called αE; αTP
Conditions: both partners purified.

T1 sequence (A0R202 whole entry): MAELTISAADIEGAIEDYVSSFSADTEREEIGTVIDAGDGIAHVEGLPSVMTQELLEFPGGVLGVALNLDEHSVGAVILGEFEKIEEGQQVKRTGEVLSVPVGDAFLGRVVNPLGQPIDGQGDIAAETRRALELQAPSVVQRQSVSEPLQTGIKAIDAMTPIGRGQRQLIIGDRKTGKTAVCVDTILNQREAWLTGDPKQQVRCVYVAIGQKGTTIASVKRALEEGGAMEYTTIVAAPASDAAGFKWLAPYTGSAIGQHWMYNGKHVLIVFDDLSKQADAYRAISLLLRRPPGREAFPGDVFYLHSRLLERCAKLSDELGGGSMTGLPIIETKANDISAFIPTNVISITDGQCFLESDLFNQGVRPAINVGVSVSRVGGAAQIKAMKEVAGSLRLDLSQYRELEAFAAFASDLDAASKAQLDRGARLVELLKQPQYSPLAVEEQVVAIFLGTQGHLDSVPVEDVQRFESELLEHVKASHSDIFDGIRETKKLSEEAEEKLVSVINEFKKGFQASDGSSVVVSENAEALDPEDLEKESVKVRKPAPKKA

Turning to B1, the binding result in data set [1] was “binds”.

B2: the binding result in data set [2] is reported as “binds”.

B3: ATP synthase c-subunit from Mycobacterium smegmatis (natural protein, UniProt A0R205 1-86, looked up)
chain: MDLDPNAIITAGALIGGGLIMGGGAIGAGIGDGIAGNALISGIARQPEAQGRLFTPFFITVGLVEAAYFINLAFMALFVFATPGLQ
notes: ATP synthase subunit c, M. smegmatis mc2 155, encoded in the entire atp operon; modelled in substate S1a (PDB 7NJK): 3-86 in all nine copies; Nine copies form the c9-ring of the rotor; in the rows with a and ε the subunit stands in that ring; also called c9-ring; c-ring
With B3, the “stoichiometry N” value in data set [3] turned out to be 9. Moreover, the binding result in data set [4] and in data set [5] was “binds” each time.

Regarding B4, the binding result in data set [6] is “binds”.

B5: the binding result in data set [6] was “binds”.

B6: ATP synthase β-subunit from Mycobacterium smegmatis (natural protein, UniProt A0R200 1-475, looked up)
chain: MTATAEKTAGRVVRITGPVVDVEFPRGSVPELFNALHAEITFGALAKTLTLEVAQHLGDSLVRCISMQPTDGLVRGVEVTDTGASISVPVGDGVKGHVFNALGDCLDDPGYGKDFEHWSIHRKPPAFSDLEPRTEMLETGLKVVDLLTPYVRGGKIALFGGAGVGKTVLIQEMINRIARNFGGTSVFAGVGERTREGNDLWVELADANVLKDTALVFGQMDEPPGTRMRVALSALTMAEFFRDEQGQDVLLFIDNIFRFTQAGSEVSTLLGRMPSAVGYQPTLADEMGELQERITSTRGRSITSMQAVYVPADDYTDPAPATTFAHLDATTELSRAVFSKGIFPAVDPLASSSTILDPAIVGDEHYRVAQEVIRILQRYKDLQDIIAILGIDELSEEDKQLVNRARRIERFLSQNMMAAEQFTGQPGSTVPLKETIEAFDKLTKGEFDHLPEQAFFLIGGLDDLAKKAESLGAKL
notes: ATP synthase subunit β, M. smegmatis mc2 155, encoded in the entire atp operon; modelled in substate S1a (PDB 7NJK): βE 8-471; βTP 7-475; βDP 8-475; Three copies in the enzyme (α3β3); also called βE; βTP
Regarding B6, in data set [6], the binding result was “binds”.

B7: ATP synthase b′-subunit from Mycobacterium smegmatis with a C-terminal His10-tag (natural protein, UniProt A0R204 1-170, looked up)
chain: MGEFSATILAASQAAEEGGGGSNFLIPNGTFFAVLIIFLIVLGVISKWVVPPISKVLAEREAMLAKTAADNRKSAEQVAAAQADYEKEMAEARAQASALRDEARAAGRSVVDEKRAQASGEVAQTLTQADQQLSAQGDQVRSGLESSVDGLSAKLASRILGVDVNSGGTQ
notes: ATP synthase subunit b′, M. smegmatis mc2 155, encoded in the entire atp operon; modelled in substate S1a (PDB 7NJK): 22-166; residues 1 to 21 had no density but are present in the assembled enzyme; One copy in the enzyme; part of the peripheral stalk; No removal of the tag is told; also called b-subunit (in some sentences)
As to B7, the binding result in data set [6], in data set [1], in data set [2] and in data set [5] was “binds” in each case.
